Results from patent publication US9127040B2, “Regulation of sodium channels by PLUNC proteins” (The University of North Carolina at Chapel Hill, priority 2011, dated 2015).

Molecular target: T1, α and γ ENaC (Rattus norvegicus, UniProt P37089+P37090+P37091)
T1 construct: expressed in transfected cells; host or cells: Xenopus oocytes (cRNA injection; with or without V5-SPLUNC1 and CAP2)
T1 sequence (P37089 1-698): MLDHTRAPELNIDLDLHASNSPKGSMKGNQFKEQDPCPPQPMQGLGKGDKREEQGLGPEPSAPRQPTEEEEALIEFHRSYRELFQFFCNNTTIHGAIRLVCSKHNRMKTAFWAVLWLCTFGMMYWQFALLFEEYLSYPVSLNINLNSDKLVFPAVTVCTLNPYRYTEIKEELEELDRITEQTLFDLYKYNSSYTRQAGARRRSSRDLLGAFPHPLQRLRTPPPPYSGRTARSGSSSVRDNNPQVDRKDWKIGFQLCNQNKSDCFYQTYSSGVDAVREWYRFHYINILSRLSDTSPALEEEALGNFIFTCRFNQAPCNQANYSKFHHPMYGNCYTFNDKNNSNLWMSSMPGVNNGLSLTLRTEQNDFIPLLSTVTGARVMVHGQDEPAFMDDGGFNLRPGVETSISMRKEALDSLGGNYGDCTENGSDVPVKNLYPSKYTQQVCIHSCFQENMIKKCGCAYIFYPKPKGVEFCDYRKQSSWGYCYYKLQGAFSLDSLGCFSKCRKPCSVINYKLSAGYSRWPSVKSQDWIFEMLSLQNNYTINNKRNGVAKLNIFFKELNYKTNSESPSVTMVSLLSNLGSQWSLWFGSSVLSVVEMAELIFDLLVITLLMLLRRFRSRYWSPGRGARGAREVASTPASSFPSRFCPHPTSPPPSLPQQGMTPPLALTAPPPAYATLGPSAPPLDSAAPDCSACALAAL
T1 sequence (P37090 1-638): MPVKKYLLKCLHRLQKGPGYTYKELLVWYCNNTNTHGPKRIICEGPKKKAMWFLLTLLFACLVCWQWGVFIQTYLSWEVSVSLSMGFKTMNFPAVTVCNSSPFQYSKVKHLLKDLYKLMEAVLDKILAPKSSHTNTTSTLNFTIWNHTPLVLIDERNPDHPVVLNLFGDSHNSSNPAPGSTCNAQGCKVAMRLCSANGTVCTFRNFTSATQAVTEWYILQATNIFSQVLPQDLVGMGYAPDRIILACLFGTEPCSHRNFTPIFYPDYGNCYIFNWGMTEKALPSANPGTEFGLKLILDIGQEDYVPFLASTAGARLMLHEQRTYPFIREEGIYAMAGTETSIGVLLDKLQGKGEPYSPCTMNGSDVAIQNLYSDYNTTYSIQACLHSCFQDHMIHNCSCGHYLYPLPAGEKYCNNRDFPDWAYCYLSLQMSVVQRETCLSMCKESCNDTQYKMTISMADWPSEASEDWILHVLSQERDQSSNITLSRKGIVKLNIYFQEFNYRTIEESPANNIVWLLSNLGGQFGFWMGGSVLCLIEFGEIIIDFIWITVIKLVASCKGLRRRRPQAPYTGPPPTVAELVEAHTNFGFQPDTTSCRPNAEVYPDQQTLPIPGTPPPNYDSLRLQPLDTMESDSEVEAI
T1 sequence (P37091 1-650): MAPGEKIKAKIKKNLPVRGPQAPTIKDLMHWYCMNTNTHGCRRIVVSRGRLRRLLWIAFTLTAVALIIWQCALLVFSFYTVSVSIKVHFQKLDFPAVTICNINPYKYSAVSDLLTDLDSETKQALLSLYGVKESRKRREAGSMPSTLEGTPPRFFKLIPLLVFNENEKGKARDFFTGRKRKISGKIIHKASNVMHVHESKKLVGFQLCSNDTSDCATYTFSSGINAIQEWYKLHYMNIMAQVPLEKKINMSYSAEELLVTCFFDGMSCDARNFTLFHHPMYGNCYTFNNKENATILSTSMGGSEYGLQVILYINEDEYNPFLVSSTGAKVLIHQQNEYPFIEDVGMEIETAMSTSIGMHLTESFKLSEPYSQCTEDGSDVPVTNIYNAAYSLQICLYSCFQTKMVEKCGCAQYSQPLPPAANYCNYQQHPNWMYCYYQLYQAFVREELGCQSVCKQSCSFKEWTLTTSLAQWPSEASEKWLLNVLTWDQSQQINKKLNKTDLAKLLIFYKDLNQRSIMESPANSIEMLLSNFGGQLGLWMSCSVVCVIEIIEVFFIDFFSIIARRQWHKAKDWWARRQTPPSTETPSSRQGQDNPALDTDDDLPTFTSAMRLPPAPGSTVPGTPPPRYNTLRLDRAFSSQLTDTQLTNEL
Assay: Western blot of ENaC cleavage by CAP2 in Xenopus oocytes
Type: cell-based
Settings: αβγENaC, CAP2 and SPLUNC1 co-expressed in oocytes
Method: Xenopus oocytes were injected with either HA-N-Terminus or V5-C-Terminus (HA-NT/V5-CT) tagged subunits in combination with wild type (WT) untagged rat αβγENaC subunits (0.3 ng cRNA each) with or without V5-tagged SPLUNC1 and CAP2 (1 ng cRNA each). After 24 h, 40 eggs per experimental condition were lysed with buffer containing (in mM): 20 Tris, 50 NaCl, 50 NaF, 10 β-glycerophosphate, 5 Na4P2O7 pyrophosphate, 1 EDTA, pH 7.5 and protease inhibitors (complete, Roche), aprotinin (Sigma). Cell lysates were prepared by passing the eggs through a 27G1/2 needle twice and by centrifugation at 3,600 rpm for 10 minutes at 4° C. […]
Proteolytic cleavage of α and γ subunits is required for ENaC activation (Mueller et al., J. Biol. Chem. 282:33475 (2007); Adebamiro et al., J. Gen. Physiol. 130:611 (2007)) and since CAP2 is highly expressed in human bronchial epithelial cultures (Tarran et al., J. Gen. Physiol. 127:591 (2006)), we tested whether SPLUNC1 could alter α and γ ENaC cleavage by CAP2. Due to the relative scarcity of purified rSPLUNC1, we elected to co-express SPLUNC1 and ENaC rather than use rSPLUNC1 for subsequent oocyte studies since SPLUNC1 is secreted at sufficient quantities from oocytes to inhibit ENaC (FIG. 5). When αβγENaC and CAP2 were co-expressed in oocytes, both full-length ENaC subunits and cleaved α and γ fragments were detected with a V5 antibody (FIG. 7A, 7B). […]

B1: SPLUNC1: human SPLUNC1 (SEQ ID NO:1), 256 amino acid secreted PLUNC family protein; rSPLUNC1 is the purified V5/6His-tagged recombinant form (protein, listed as Homo sapiens)
chain: MFQTGGLIVFYGLLAQTMAQFGGLPVPLDQTLPLNVNPALPLSPTGLAGSLTNALSNGLLSGGLLGILENLPLLDILKPGGGTSGGLLGGLLGKVTSVIPGLNNIIDIKVTDPQLLELGLVQSPDGHRLYVTIPLGIKLQVNTPLVGASLLRLAVKLDITAEILAVRDKQERIHLVLGDCTHSPGSLQISLLDGLGPLPIQGLLDSLTGILNKVLPELVQGNVCPLVNEVLRGLDITLVHDIVNMLIHGLQFVIKV
modifications: V5/6His tag in recombinant form
notes: rSPLUNC1 is the purified V5/6His-tagged recombinant form
B1 was tested, and the “α and γ ENaC cleavage by CAP2” value was “only full-length α and γ ENaC subunits could be observed”.
